The values below come from patent US20140357845A1 (published 2014).

Experiment [1] addresses mini-H3 cluster1 + 2 + 3 + 4 + 5 + 6 + 7-N405A (influenza A virus H3N2, UniProt Q38SQ8 18-566). Briefly: FACS. A general note: Flow cytometry measures light scatter and fluorescence of single cells or particles in a stream.
Experiment [2] deals with mini-H3 cluster1 + 2 + 3 + 4 + 5 + 6 + 7-N405D (influenza A virus H3N2, UniProt Q38SQ8 18-566). The experiment in a line: FACS.

B1: CR9114 (antibody, V domains shown)
VH: QVQLVQSGAEVKKPGSSVKVSCKSSGGTSNNYAISWVRQAPGQGLDWMGGISPIFGSTAYAQKFQGRVTISADIFSNTAYMELNSLTSEDTAVYFCARHGNYYYYSGMDVWGQGTTVTVSS
VL: SYVLTQPPAVSGTPGQRVTISCSGSDSNIGRRSVNWYQQFPGTAPKLLIYSNDQRPSVVPDRFSGSKSGTSASLAISGLQSEDEAEYYCAAWDDSLKGAVFGGGTQLTVL
For the molecule B1, the binding result in experiment [1] and in experiment [2] was “no binding (tested: 5 microgram/ml)” in each case.
